Target: D-psicose 3-epimerase from Iocasia fonsfrigidae strain SP3-1 (Iocasia fonsfrigidae strain SP3-1)
Assay: native gel or EMSA; native-PAGE of the purified recombinant enzyme, run like SDS-PAGE but without SDS, beta-mercaptoethanol and heat

stoichiometry N: 2
Substance: D-psicose 3-epimerase from Iocasia fonsfrigidae strain SP3-1 (enzyme)
